Test results taken from patent US12534534 (F STAR BETA, dated 2026).

B1: G1/MOR7480.1 (antibody, human IgG1, lambda)
heavy: not shown
light: SYELTQPPSVSVSPGQTASITCSGDNIGDQYAHWYQQKPGQSPVLVIYQDKNRPSGIPERFSGSNSGNTATLTISGTQAMDEADYYCATYTGFGSLAVFGGGTKLTVLGQPKAAPSVTLFPPSSEELQANKATLVCLISDFYPGAVTVAWKADSSPVKAGVETTTPSKQSNNKYAASSYLSLTPEQWKSHRSYSCQVTHEGSTVEKTVAPTECS
notes: human IgG1 without LALA; also called MOR7480.1 in IgG1 format
B2: FS20-22-49AA/FS30-5 variant, Methionine (100H) to L (bispecific antibody, V domains shown)
VH: EVQLLESGGGLVQPGGSLRLNCAASGFTFSSYAMSWVRQAPGKGLEWVSAISGSGGSTYYADSVKGRFTISRDNSKNTLYLQMNSLRAEDTAVYYCARSYDKYWGSSMYSGLDYWGQGTLVTVSS
VL: EIVLTQSPGTLSLSPGERATLSCRASQSVSSSYLAWYQQKPGQAPRLLIYGASSRATGIPDRFSGSGSGTDFTLTISRLEPEDFAVYYCQQYYSYYPVTFGQGTKVEIKR

Experiments:
NGFR-Fc = target: T1, NGFR-Fc (human, UniProt P08138 29-250); test: SPR, antigen immobilised on CM5 chip
T1 construct: bought; also called NGFR (R&D Systems, 367-NR-050/CF); not shown: Fc part of the bought fusion
T1 sequence (looked up): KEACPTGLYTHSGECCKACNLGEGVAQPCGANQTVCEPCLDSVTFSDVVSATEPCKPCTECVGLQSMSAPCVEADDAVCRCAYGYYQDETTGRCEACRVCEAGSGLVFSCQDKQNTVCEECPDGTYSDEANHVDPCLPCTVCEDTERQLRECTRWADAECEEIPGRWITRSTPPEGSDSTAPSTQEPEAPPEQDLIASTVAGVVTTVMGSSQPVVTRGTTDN
Procedure: (§1) Flow cell 1 was run as a blank immobilisation. The five FS20-22-49AA/FS30 mAb² were diluted to 1 μM and 1 nM in 1×HBS-EP buffer (GE Healthcare, product code BR100188), allowed to flow over the chip for 3 min and then allowed to dissociate for 4 minutes. A 30-second injection of 10 mM glycine pH 1.5 was used for regeneration. […] Binding levels were determined at the end of the association phase and compared.
(§2) Specificity was tested against the same five human TNFRSF members closely-related to CD137 (TNFRSF1A, TNFRSF1B, GITR, NGFR and CD40) plus an additional closely-related TNFRSF member, human DR6 (DR6-Fc; R&D Systems, 144-DR-100), using SPR as described in Example 3.1.

TNFRSF1B-Fc = target: T2, TNFRSF1B-Fc (human, UniProt P20333 23-257); test: SPR, antigen immobilised on CM5 chip
T2 construct: bought; also called TNFRSF1B (R&D Systems, 726-R2-050); not shown: Fc part of the bought fusion
T2 sequence (looked up): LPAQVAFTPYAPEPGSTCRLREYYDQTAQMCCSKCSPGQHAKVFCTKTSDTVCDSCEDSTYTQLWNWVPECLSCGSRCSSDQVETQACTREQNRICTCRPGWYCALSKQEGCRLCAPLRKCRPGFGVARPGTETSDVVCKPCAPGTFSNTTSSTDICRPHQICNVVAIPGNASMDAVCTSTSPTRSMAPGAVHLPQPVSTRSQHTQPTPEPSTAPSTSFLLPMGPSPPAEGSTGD
Procedure: as §1, §2

GITR-hFc-Avi = target: T3, GITR-hFc-Avi (human, UniProt Q9Y5U5 26-161); test: SPR, antigen immobilised on CM5 chip
T3 construct: in-house produced; not shown: hFc and Avi part
T3 sequence: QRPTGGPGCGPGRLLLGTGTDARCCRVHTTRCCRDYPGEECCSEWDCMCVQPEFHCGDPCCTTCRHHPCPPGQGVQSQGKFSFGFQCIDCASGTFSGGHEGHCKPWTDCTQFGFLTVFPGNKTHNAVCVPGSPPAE
Procedure: as §1, §2

CD40-mFc = target: T4, CD40-mFc (human, UniProt P25942 21-193); test: SPR, antigen immobilised on CM5 chip
T4 construct: in-house produced; not shown: mFc part
Procedure: as §1, §2

TNFRSF1A-Fc = target: T5, TNFRSF1A-Fc (human, UniProt P19438 30-211, limits assumed); test: SPR, antigen immobilised on CM5 chip
T5 construct: bought; also called TNFRSF1A (R&D Systems, 372-RI-050/CF); not shown: Fc part of the bought fusion
T5 sequence (looked up): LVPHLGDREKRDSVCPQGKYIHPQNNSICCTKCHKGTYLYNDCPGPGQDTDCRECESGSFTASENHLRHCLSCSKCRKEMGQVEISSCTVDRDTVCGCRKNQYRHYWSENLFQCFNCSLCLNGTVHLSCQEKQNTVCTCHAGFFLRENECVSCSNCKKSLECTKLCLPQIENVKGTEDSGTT
Procedure: as §1, §2

DR6-Fc = target: T6, DR6-Fc (human, UniProt O75509 42-349, limits assumed); test: SPR, antigen immobilised on CM5 chip
T6 construct: bought; also called human DR6 (R&D Systems, 144-DR-100); not shown: Fc part of the bought fusion
T6 sequence (looked up): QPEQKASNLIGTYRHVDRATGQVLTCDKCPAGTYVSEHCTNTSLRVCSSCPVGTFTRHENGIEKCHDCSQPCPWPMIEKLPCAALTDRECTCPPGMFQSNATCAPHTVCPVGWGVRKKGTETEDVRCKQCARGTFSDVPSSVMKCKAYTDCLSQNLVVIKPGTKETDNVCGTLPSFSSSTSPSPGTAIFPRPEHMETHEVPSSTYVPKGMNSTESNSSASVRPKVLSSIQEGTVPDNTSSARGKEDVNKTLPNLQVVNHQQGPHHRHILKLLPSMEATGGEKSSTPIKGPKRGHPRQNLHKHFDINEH
Procedure: as §1, §2

cCD137-mFc-Avi = target: T7, cCD137-mFc-Avi (cynomolgus, Homodimer through the mouse Fc (one chain given). In the biotinylated version one biotin sits on the Avi-tag lysine of each monomer.); test: SPR (Biacore 3000), mAb captured by anti-human Fc, dimeric CD137-mFc as analyte, 1:1 model with mass transfer
T7 construct: dimer; biotinylated version used on streptavidin plates; also called cyno CD137-mFc-Avi; cyno CD137-mFc
T7 chain: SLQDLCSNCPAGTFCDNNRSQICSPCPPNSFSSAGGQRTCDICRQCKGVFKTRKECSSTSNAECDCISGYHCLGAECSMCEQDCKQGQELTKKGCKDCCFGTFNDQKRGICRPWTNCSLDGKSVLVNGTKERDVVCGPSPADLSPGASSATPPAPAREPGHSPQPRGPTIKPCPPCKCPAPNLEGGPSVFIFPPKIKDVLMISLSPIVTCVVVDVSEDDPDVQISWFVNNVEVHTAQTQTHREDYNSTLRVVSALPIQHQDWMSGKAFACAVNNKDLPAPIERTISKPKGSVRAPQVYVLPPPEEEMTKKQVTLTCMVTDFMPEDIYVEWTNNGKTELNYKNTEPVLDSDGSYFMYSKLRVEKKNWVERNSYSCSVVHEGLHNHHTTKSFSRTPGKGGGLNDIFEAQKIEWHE
Procedure: Briefly, 25 µg/ml anti-human IgG (Fc) antibody (GE Healthcare, Human Antibody Capture Kit, BR100839) was coated on flow cells 1, 2, 3 and 4 of a Biacore sensor chip CM5 (GE Healthcare, BR100012) for 3 minutes at 5 µl/min, achieving a final response of approximately 4300 RU. The mAb² clones, diluted in HBS-EP buffer (GE Healthcare, BR100188) at 0.5 µg/ml, were injected individually on flows cell 2, 3 and 4 at 30 µl/min to achieve a response of approximately 80 RU. […] Regeneration was achieved by injecting 3 M magnesium chloride (GE Healthcare, Human Antibody Capture Kit, BR100839) for 30 seconds at a rate of 30 µl/min. […] These slightly less stringent conditions were used to assess whether this molecule could bind to cyno CD137-mFc. Subtracted data (flow cell 2-flow cell 1, flow cell 3-flow cell 1, or flow cell 4-flow cell 1) were analysed using BIAevaluation 3.2 Software (GE Healthcare) to identify binding using the model 1:1 binding with mass transfer, with refractive index (RI) constant 0.

[1] = target: T8, human CD137 on DO11.10-hCD137 cells (human, UniProt Q07011 24-255); test: cell-based or functional assay
[2] = target: T8, human CD137 on DO11.10-hCD137 cells; test: cell binding at 10 nM to DO11.10-hCD137 cells, against the parent FS20-22-49AA/FS30-5

T8 sequence (Q07011 24-255): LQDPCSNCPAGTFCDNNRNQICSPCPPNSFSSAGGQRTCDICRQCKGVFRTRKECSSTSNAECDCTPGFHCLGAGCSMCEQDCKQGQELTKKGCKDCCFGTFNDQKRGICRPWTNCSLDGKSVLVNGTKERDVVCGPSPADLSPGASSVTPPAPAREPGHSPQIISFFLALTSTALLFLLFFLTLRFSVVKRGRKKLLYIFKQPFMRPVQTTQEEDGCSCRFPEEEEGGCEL
T4 sequence (P25942 21-193): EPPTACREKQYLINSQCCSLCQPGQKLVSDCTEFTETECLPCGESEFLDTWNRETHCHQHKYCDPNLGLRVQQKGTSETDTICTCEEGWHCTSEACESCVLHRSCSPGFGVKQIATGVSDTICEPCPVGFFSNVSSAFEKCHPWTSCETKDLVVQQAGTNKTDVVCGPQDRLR

Binder	binding result (NGFR-Fc)	binding result (TNFRSF1B-Fc)	binding result (GITR-hFc-Avi)	binding result (CD40-mFc)	binding result (TNFRSF1A-Fc)	binding result (DR6-Fc)	Kd (cCD137-mFc-Avi)	DO11.10-hCD137 T cell activation assay EC50 (nM), crosslinked [1]	fold change of cell binding at 10 nM against the parent clone [2]
B1	no binding	no binding	no binding	no binding	no binding	no binding	0.34 nM		
B2								5.9 nM	< 1.3 fold
